Reference: patent US20100330617A1 (Sanofi, published 2010)

Molecular target: T1, bovine serum albumin (bovine, UniProt P02769 25-607)
T1 construct: Control resin with an equimolar amount of BSA coupled; also called BSA; BSA-agarose resin
Experiment: affinity chromatography of murine liver extract on BSA control resin, SDS-PAGE and silver staining

T1 sequence (P02769 25-607 limits assumed): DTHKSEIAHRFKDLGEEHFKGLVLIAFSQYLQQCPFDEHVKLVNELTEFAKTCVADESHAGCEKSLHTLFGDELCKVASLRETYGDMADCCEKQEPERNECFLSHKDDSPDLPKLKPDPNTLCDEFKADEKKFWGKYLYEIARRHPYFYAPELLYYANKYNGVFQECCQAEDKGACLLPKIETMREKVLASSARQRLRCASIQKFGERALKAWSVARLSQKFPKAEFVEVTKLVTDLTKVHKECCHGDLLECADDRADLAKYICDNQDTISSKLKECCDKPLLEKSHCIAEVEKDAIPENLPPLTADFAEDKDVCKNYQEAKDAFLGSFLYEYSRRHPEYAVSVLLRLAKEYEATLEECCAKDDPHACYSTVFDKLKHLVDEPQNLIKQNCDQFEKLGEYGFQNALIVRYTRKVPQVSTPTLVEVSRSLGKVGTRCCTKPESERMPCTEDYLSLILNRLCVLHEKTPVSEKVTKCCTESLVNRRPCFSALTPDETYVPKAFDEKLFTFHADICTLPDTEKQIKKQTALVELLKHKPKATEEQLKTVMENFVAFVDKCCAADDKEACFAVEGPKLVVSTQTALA

binding result: no binding
B1: endogenous LIMP-2 from murine liver extract (75 kD GC binding protein) (receptor)
chain: MGRCCFYTAGTLSLLLLVTSVTLLVARVFQKAVDQTIEKNMVLQNGTKVFNSWEKPPLPVYIQFYFFNVTNPEEILQGEIPLLEEVGPYTYRELRNKANIQFGENGTTISAVTNKAYVFERNQSVGDPNVDLIRTINIPLLTVVDLAQLTLLRELIEAMLKAYQQKLFVIHTVHELLWGYKDEILSLVHIFKPDVSPNFGLFYERNGTNDGEYVFLTGEDNYLNFSKIVEWNGKTSLDWWTTDTCNMINGTDGDSFHPLISKDEVLYLFPSDLCRSVHITFSSFENVEGLPAFRYKVPAEILANTSENAGFCIPEGNCMDSGVLNISICKNGAPIIMSFPHFYQADEKFVSAIKGMHPNKEEHESFVDINPLTGIILRGAKRFQINTYVRKLDDFVETGDIRTMVFPVMYLNESVLIDKETANQLKSVINTTLVVTNIPYIIMALGVFFGLVFTWLACRGQGSMDEGTADERAPLIRT
notes: Identified by mass spectrometry as LIMP-2; N-glycosylated (75 kD, 54 kD after PNGase-F); also called 75 kD polypeptide
